From paper PMC12344693, “Human Milk Oligosaccharides Multivalently Presented on Defined Synthetic Neo-Glycoproteins Are Nanomolar Ligands of Tandem-Repeat Galectins” (Biomacromolecules, 2025)

Key:
[1] = target: full-length recombinant human galectin-8, N-terminal His-tagged (human) (UniProt O00214); experiment: ELISA; competitive: ASF (0.1 μM in PBS) immobilised on microtiter plates; serial dilutions of inhibitor in EPBS (PBS with 2 mM EDTA) incubated 2 h with a constant galectin concentration ([…] Gal-1, Gal-3, Gal-4; 0.5 μM Gal-8, Gal-9); residual galectin on ASF detected with anti-His-tag-HRP
Asialofetuin = Asialofetuin (UniProt P12763); experiment: ELISA; direct ELISA: ASF immobilised on microtiter plates, serial dilution of the galectin in EPBS (PBS with 2 mM EDTA, 50 µL/well); otherwise as the competitive ELISA (anti-His-tag-HRP detection)
[2] = target: His-tagged galectin-1 (C2S) (human); experiment: ELISA; competitive ELISA: ASF (0.1 µM in PBS) immobilised, serial dilutions of the neo-glycoprotein in EPBS incubated with […] Gal-1 or Gal-3 for 2 h; galectin left on ASF detected with anti-His-tag-HRP
Chain of His-tagged galectin-1 (C2S) (human) (P09382 other isoform, or with tags, fused parts or gaps): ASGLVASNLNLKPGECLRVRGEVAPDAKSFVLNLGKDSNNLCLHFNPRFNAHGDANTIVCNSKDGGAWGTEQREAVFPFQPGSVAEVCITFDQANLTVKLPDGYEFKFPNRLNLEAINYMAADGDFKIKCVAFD

Chain of full-length recombinant human galectin-8, N-terminal His-tagged (human) (O00214 whole entry): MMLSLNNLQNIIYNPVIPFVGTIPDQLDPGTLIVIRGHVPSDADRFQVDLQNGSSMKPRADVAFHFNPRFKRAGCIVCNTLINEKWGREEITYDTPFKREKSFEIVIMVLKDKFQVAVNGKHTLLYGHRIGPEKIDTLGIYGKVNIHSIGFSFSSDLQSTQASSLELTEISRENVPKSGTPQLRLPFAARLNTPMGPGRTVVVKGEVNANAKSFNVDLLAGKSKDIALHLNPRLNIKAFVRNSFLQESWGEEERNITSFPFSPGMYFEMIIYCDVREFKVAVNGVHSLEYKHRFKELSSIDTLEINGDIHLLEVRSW
Chain of Asialofetuin (P12763 19-359): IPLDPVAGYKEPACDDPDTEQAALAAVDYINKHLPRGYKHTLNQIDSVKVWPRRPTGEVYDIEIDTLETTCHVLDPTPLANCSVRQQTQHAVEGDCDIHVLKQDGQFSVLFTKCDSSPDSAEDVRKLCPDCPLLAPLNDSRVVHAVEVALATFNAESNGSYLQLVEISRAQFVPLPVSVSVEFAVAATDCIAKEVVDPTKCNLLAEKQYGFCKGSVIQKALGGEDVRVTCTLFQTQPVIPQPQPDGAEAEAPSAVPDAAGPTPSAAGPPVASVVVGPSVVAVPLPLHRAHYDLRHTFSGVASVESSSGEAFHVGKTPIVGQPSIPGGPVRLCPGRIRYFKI

| Substance | IC50 [1] [nM] | IC50 [2] [nM] | also measured |
| --- | --- | --- | --- |
| neo-glycoprotein NGP7 (LDN-Lac-HSA) (from UniProt P02768 25-609) | 400 | – | – |
| Gal-9-AVI-link (natural protein) | – | – | Kd (Asialofetuin): 180 nM |
| neo-glycoprotein NGP4 (LN1-LN2-HSA) (from UniProt P02768 25-609) | 600 | – | – |
| Neo-glycoprotein NGP4 (LN1-LN2-HSA) (from UniProt P02768 25-609) | – | > 20000 | – |
| Gal-8-AVI-link (natural protein) | – | – | Kd (Asialofetuin): 320 nM |

Now from value to substance, other results behind:

| IC50 [1] [nM] | IC50 [2] [nM] | Substance | also measured |
| --- | --- | --- | --- |
| > 20000 | – | neo-glycoprotein NGP2 (LN2-HSA) (from UniProt P02768 25-609) | – |
| – | > 20000 | Neo-glycoprotein NGP1 (Lac-HSA) (from UniProt P02768 25-609) | – |
| – | > 20000 | Neo-glycoprotein NGP8 (LDN-LN2-HSA) (from UniProt P02768 25-609) | – |
| 200 | – | neo-glycoprotein NGP5 (LN2-Lac-HSA) (from UniProt P02768 25-609) | – |
| > 20000 | – | neo-glycoprotein NGP1 (Lac-HSA) (from UniProt P02768 25-609) | – |
